Numbering of substitutions follows the chain as printed.
B1: CF-11 (SEQ ID NO: 31) (peptide)
chain: SEKKQPVDLGLLEEDDEFEEFPAEDWAGLDEDEDAHVWEDNWDDDNVEDDFSNQLRATVLLMILVVETPYGVYVLHQKGRMVSAFLVV
B2: CF-04 (SEQ ID NO: 29) (peptide)
chain: B1 chain with V66A, V72A, V82A, V87A, V88A
B3: CF-24 (SEQ ID NO: 38) (peptide)
chain: B1 chain with V72A, V88A
B4: CF-25 (SEQ ID NO: 39) (peptide)
chain: B1 chain with V82A, V87A
B5: CF-31 (SEQ ID NO: 48) (peptide)
chain: SQWAPLDHLESDEWGAFEDEDFNNGDVEELDPEERDDEDLFQKDVLVAKADDEEWDNTVLLMILVCETPYGCYVLHQKGRMCSAFLCC
B6: CF-38 (SEQ ID NO: 51) (peptide)
chain: B1 chain with E2T, D25S, D34S, E48T, D49S, V66C, V72C, V82C, V87C, V88C
B7: CF-39 (SEQ ID NO: 52) (peptide)
chain: B1 chain with D34S, E48T, D49S, V66C, V72C, V82C, V87C, V88C
B8: CF-40 (SEQ ID NO: 53) (peptide)
chain: B1 chain with E48T, D49S, V66C, V72C, V82C, V87C, V88C
B9: CF-43 (SEQ ID NO: 54) (peptide)
chain: SEKKQPVDLGLLEEDDEFEEFPAEDWAGLDEDEDAHVWEDNWDDDNVTSDFSNQLRATVLLMILVCETPYGCYVLHQKGRMCS
B10: CF-10 (SEQ ID NO: 30) (peptide)
chain: B1 chain with V66C, V72C, V82C, V87C, V88A
B11: CF-22 (SEQ ID NO: 36) (peptide)
chain: B1 chain with V72A, V82A
B12: CF-28 (SEQ ID NO: 45) (peptide)
chain: SEFEDANKEQGEVPNDDVSDELPKLLDDDEDELRGALFFQWHDWEEAEDNDWDVEDATVLLMILVCETPYGCYVLHQKGRMCSAFLCC
B13: CF-29 (SEQ ID NO: 46) (peptide)
chain: SELDFWDNWKDRQADLPAASDDEDFENDLAEVDHEDPLVDGNEWDGDEVEFELEEQKTVLLMILVCETPYGCYVLHQKGRMCSAFLCC
B14: CF-30 (SEQ ID NO: 47) (peptide)
chain: SDADEFDDDNSVWGWEDDEVEPNDAFQPLGDVRANEELDEKDHKLDEEADLQWEFELTVLLMILVCETPYGCYVLHQKGRMCSAFLCC

Legend:
[1] = target: BSA (UniProt P02769 25-607); experiment: cell-based or functional assay
[2] = target: oxidized HSA protein (UniProt P02768 25-609, oxidized with 8 mM NaClO in the dark for 30 min (which residues are oxidized is not stated)); experiment: cell-based or functional assay
Sequence of oxidized HSA protein (P02768 25-609): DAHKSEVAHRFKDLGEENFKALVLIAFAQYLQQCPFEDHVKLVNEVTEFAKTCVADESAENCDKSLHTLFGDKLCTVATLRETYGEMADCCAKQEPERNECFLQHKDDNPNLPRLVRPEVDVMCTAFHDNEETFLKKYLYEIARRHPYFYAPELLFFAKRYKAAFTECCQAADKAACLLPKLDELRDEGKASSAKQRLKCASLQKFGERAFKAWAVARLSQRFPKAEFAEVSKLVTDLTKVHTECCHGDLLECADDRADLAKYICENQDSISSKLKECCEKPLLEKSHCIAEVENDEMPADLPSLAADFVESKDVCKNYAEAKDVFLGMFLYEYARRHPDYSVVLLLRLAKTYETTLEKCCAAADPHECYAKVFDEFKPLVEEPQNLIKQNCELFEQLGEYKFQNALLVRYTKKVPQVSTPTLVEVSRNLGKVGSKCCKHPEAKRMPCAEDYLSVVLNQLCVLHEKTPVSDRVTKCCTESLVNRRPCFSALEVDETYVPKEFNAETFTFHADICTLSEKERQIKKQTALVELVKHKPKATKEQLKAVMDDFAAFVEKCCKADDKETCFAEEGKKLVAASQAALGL

Sequence of BSA (P02769 25-607 limits assumed): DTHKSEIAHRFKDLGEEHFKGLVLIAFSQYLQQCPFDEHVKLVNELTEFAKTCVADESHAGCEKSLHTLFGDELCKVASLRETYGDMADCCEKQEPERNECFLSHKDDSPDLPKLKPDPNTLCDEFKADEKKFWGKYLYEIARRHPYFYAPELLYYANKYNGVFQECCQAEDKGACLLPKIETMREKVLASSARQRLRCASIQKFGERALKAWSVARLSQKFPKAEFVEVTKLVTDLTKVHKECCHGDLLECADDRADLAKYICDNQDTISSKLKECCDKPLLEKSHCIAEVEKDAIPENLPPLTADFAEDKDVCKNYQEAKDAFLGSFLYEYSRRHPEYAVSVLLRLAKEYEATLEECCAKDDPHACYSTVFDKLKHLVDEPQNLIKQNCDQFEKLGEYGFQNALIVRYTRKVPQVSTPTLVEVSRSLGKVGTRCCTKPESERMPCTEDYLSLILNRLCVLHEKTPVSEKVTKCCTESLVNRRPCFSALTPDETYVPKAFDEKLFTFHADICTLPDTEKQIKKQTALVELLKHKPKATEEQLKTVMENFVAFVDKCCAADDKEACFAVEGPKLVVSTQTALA

Row | Binder | IC50 (µM) for inhibiting thermal aggregation of BSA [1] | IC50 (µM) for cellular ROS level induced by DAMP [2]
1 | B1 | ~7 µM | –
2 | B2 | ~10.2 µM | –
3 | B3 | 17.6 µM | –
4 | B4 | 21.5 µM | –
5 | B5 | 12.8 µM | –
6 | B6 | 13.8 µM | 4.12 µM
7 | B7 | 10.5 µM | 3.91 µM
8 | B8 | 12 µM | 5.87 µM
9 | B9 | 6.77 µM | 6.13 µM
10 | B10 | 13.8 µM | –
11 | B11 | 16.9 µM | –
12 | B12 | 7.48 µM | –
13 | B13 | 13.8 µM | –
14 | B14 | 21.3 µM | –
